From patent publication US20230256017A1 (published 2023)

Target: T1, BCMA (TNFRSF17) (human, UniProt Q02223 1-184, limits assumed)
T1 construct: Member of a commercial human plasma membrane protein array
T1 sequence (looked up): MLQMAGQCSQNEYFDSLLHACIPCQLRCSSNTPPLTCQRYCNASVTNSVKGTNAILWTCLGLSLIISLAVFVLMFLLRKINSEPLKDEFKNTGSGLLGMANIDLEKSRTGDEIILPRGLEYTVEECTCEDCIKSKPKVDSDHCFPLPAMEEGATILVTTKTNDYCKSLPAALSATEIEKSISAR
Assay: commercial human plasma membrane protein array

Row | Binder | binding result
1 | anti-human BCMA single chain antibody variable fragment (scFv) (PI61) (scFv, also called PI61 scFv) scFv: QVQLQESGGGVVQPGRSLRLSCAASGFTFSSYGMHWVRQAPGKGLEWVAVISYDGSNKYYADSVKGRFTISRDNSKNTLYLQMNSLRAEDTAVYYCGGSGYALHDDYYGLDVWGQGTLVTVSSGGGGSGGGGSGGGGSQSALTQPASVSGSPGQSITISCTGTSSDVGGYNYVSWYQQHPGKAPKLMIYDVSNRPSGVSNRFSGSKSGNTASLTISGLQAEDEADYYCSSYTSSSTLYVFGSGTKVTVL | binds

Target: T2, CD2 (human, UniProt P06729 25-351)
T2 construct: whole, on cells; also called T-cell surface antigen T11/Leu-5/CD2
T2 sequence (looked up): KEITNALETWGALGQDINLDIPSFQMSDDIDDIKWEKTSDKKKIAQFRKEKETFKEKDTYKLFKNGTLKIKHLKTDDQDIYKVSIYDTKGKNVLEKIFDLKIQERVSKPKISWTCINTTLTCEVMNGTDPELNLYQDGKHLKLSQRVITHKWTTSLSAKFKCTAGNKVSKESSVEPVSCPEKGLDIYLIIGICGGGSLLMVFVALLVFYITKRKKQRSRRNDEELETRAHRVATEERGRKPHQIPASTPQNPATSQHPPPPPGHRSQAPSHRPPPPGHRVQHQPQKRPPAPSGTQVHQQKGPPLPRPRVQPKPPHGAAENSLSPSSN
Assay: legend of FIG. 55 (CAR transduction of donor T cells by costimulatory molecule targeted); no direct binding assay

Row | Binder | binding result
2 | Construct 1 (bispecific antibody, human IgG1, kappa, Anti-CD3 scFv fused to an anti-CD2 Fab, further fused to a wild type Fc; also called F1) light: DVVMTQSPPSLLVTLGQPASISCRSSQSLLHSSGNTYLNWLLQRPGQSPQPLIYLVSKLESGVPDRFSGSGSGTDFTLKISGVEAEDVGVYYCMQFTHYPYTFGQGTKLEIKRTVAAPSVFIFPPSDEQLKSGTASVVCLLNNFYPREAKVQWKVDNALQSGNSQESVTEQDSKDSTYSLSSTLTLSKADYEKHKVYACEVTHQGLSSPVTKSFNRGEC heavy: not shown | binds
3 | Construct 12 (bispecific antibody, human IgG1, kappa, Anti-CD2 Fab-Fc paired with anti-CD3 scFv-Fc-(G4S)3-Matrilin1; also called F12) light: DVVMTQSPPSLLVTLGQPASISCRSSQSLLHSSGNTYLNWLLQRPGQSPQPLIYLVSKLESGVPDRFSGSGSGTDFTLKISGVEAEDVGVYYCMQFTHYPYTFGQGTKLEIKRTVAAPSVFIFPPSDEQLKSGTASVVCLLNNFYPREAKVQWKVDNALQSGNSQESVTEQDSKDSTYSLSSTLTLSKADYEKHKVYACEVTHQGLSSPVTKSFNRGEC heavy 1: QVQLVQSGAEVQRPGASVKVSCKASGYIFTEYYMYWVRQAPGQGLELVGRIDPEDGSIDYVEKFKKKVTLTADTSSSTAYMELSSLTSDDTAVYYCARGKFNYRFAYWGQGTLVTVSSASTKGPSVFPLAPSSKSTSGGTAALGCLVKDYFPEPVTVSWNSGALTSGVHTFPAVLQSSGLYSLSSVVTVPSSSLGTQTYICNVNHKPSNTKVDKRVEPKSCDKTHTCPPCPAPELLGGPSVFLFPPKPKDTLMISRTPEVTCVVVDVSHEDPEVKFNWYVDGVEVHNAKTKPREEQYNSTYRVVSVLTVLHQDWLNGKEYKCKVSNKALPAPIEKTISKAKGQPREPQVCTLPPSREEMTKNQVSLSCAVKGFYPSDIAVEWESNGQPENNYKTTPPVLDSDGSFFLVSKLTVDKSRWQQGNVFSCSVMHEALHNRFTQKSLSLSPGK heavy 2: not shown | binds
4 | Construct 3 (bispecific antibody, human IgG1, kappa, Anti-CD2 Fab fused to a wild type Fc, further fused to an anti-CD3 scFv; Stated ligand valency of 2; also called F3) light: DVVMTQSPPSLLVTLGQPASISCRSSQSLLHSSGNTYLNWLLQRPGQSPQPLIYLVSKLESGVPDRFSGSGSGTDFTLKISGVEAEDVGVYYCMQFTHYPYTFGQGTKLEIKRTVAAPSVFIFPPSDEQLKSGTASVVCLLNNFYPREAKVQWKVDNALQSGNSQESVTEQDSKDSTYSLSSTLTLSKADYEKHKVYACEVTHQGLSSPVTKSFNRGEC heavy: not shown | binds
5 | Construct 5 (bispecific antibody, Anti-CD2 Fab fused to an anti-CD3 scFv, further fused to an Fc; Stated ligand valency of 2; also called F5) light: DVVMTQSPPSLLVTLGQPASISCRSSQSLLHSSGNTYLNWLLQRPGQSPQPLIYLVSKLESGVPDRFSGSGSGTDFTLKISGVEAEDVGVYYCMQFTHYPYTFGQGTKLEIKRTVAAPSVFIFPPSDEQLKSGTASVVCLLNNFYPREAKVQWKVDNALQSGNSQESVTEQDSKDSTYSLSSTLTLSKADYEKHKVYACEVTHQGLSSPVTKSFNRGEC heavy: not shown | binds
6 | Construct 15 (bispecific antibody, human IgG1, kappa, Anti-CD2 Fab-Fc paired with anti-CD3 scFv-Fc-(G4S)-COMPcc; also called F15) light: DVVMTQSPPSLLVTLGQPASISCRSSQSLLHSSGNTYLNWLLQRPGQSPQPLIYLVSKLESGVPDRFSGSGSGTDFTLKISGVEAEDVGVYYCMQFTHYPYTFGQGTKLEIKRTVAAPSVFIFPPSDEQLKSGTASVVCLLNNFYPREAKVQWKVDNALQSGNSQESVTEQDSKDSTYSLSSTLTLSKADYEKHKVYACEVTHQGLSSPVTKSFNRGEC heavy 1: QVQLVQSGAEVQRPGASVKVSCKASGYIFTEYYMYWVRQAPGQGLELVGRIDPEDGSIDYVEKFKKKVTLTADTSSSTAYMELSSLTSDDTAVYYCARGKFNYRFAYWGQGTLVTVSSASTKGPSVFPLAPSSKSTSGGTAALGCLVKDYFPEPVTVSWNSGALTSGVHTFPAVLQSSGLYSLSSVVTVPSSSLGTQTYICNVNHKPSNTKVDKRVEPKSCDKTHTCPPCPAPELLGGPSVFLFPPKPKDTLMISRTPEVTCVVVDVSHEDPEVKFNWYVDGVEVHNAKTKPREEQYNSTYRVVSVLTVLHQDWLNGKEYKCKVSNKALPAPIEKTISKAKGQPREPQVCTLPPSREEMTKNQVSLSCAVKGFYPSDIAVEWESNGQPENNYKTTPPVLDSDGSFFLVSKLTVDKSRWQQGNVFSCSVMHEALHNRFTQKSLSLSPGK heavy 2: not shown | binds
7 | Construct 7 (bispecific antibody, Anti-CD3 scFv fused to an Fc, further fused to an anti-CD2 Fab; Stated ligand valency of 2; also called F7) light: DVVMTQSPPSLLVTLGQPASISCRSSQSLLHSSGNTYLNWLLQRPGQSPQPLIYLVSKLESGVPDRFSGSGSGTDFTLKISGVEAEDVGVYYCMQFTHYPYTFGQGTKLEIKRTVAAPSVFIFPPSDEQLKSGTASVVCLLNNFYPREAKVQWKVDNALQSGNSQESVTEQDSKDSTYSLSSTLTLSKADYEKHKVYACEVTHQGLSSPVTKSFNRGEC heavy: not shown | binds
